{
  "source": "patent US20240309070A1",
  "key": {"human insulin (human)": {"target": "human insulin (human) (UniProt P01308)", "assay": "polyreactivity ELISA, insulin coated, antibody 10 µg/mL, signal normalised to non-coated well"}, "[1]": {"target": "tEGFR (truncated EGFR) on vector-only transduced T cells (Homo sapiens (Human)) (UniProt P00533)"}, "[2]": {"target": "Western Reserve B5 on cells infected with VVddeGFP Western Reserve virus (Vaccinia virus, Western Reserve strain) (UniProt Q01227)", "assay": "flow cytometry, SKOV3 cells infected with WR VV (negative control)"}, "[3]": {"target": "Copenhagen B5 on cells infected with VVCopenhagen (YFP) virus (Vaccinia virus, Copenhagen strain) (UniProt P21115)", "assay": "flow cytometry, HT29 cells infected with Copenhagen VV (negative control)"}, "[4]": {"target": "Western Reserve B5 on cells infected with VVddeGFP Western Reserve virus (Vaccinia virus, Western Reserve strain) (UniProt Q01227)", "assay": "flow cytometry, HT29 cells infected with WR VV (negative control)"}},
  "data": [
    {"substance": "Infliximab (antibody)", "values": [
      {"measurement": "Polyreactivity Insulin Score", "setting": "human insulin (human)", "value": 2.9, "unit": "score"}
    ]},
    {"substance": "VV B5 monomer protein (Wyeth Vaccinia strain B5 with C-terminal AVI tag and HIS6 tag) (from UniProt O57254 18-279)", "values": [
      {"measurement": "CAR+ % Parent", "setting": "[1]", "value": 1.54, "unit": "%"}
    ]},
    {"substance": "human IgG1k isotype control (antibody)", "values": [
      {"measurement": "EC50", "setting": "[2]", "value": 10, "unit": "pM"},
      {"measurement": "EC50", "setting": "[3]", "value": 10, "unit": "pM"},
      {"measurement": "EC50", "setting": "[4]", "value": 20, "unit": "pM"}
    ]}
  ]
}
